# B1: E3 ubiquitin-protein ligase LNX (Homo sapiens), Q8TBB1 (parent)
# chain: MNQPESANDPEPLCAVCGQAHSLEENHFYSYPEEVDDDLICHICLQALLDPLDTPCGHTYCTLCLTNFLVEKDFCPMDRKPLVLQHCKKSSILVNKLLNKLLVTCPFREHCTQVLQRCDLEHHFQTSCKGASHYGLTKDRKRRSQDGCPDGCASLTATAPSPEVSAAATISLMTDEPGLDNPAYVSSAEDGQPAISPVDSGRSNRTRARPFERSTIRSRSFKKINRALSVLRRTKSGSAVANHADQGRENSENTTAPEVFPRLYHLIPDGEITSIKINRVDPSESLSIRLVGGSETPLVHIIIQHIYRDGVIARDGRLLPGDIILKVNGMDISNVPHNYAVRLLRQPCQVLWLTVMREQKFRSRNNGQAPDAYRPRDDSFHVILNKSSPEEQLGIKLVRKVDEPGVFIFNVLDGGVAYRHGQLEENDRVLAINGHDLRYGSPESAAHLIQASERRVHLVVSRQVRQRSPDIFQEAGWNSNGSWSPGPGERSNTPKPLHPTITCHEKVVNIQKDPGESLGMTVAGGASHREWDLPIYVISVEPGGVISRDGRIKTGDILLNVDGVELTEVSRSEAVALLKRTSSSIVLKALEVKEYEPQEDCSSPAALDSNHNMAPPSDWSPSWVMWLELPRCLYNCKDIVLRRNTAGSLGFCIVGGYEEYNGNKPFFIKSIVEGTPAYNDGRIRCGDILLAVNGRSTSGMIHACLARLLKELKGRITLTIVSWPGTFL
# partner: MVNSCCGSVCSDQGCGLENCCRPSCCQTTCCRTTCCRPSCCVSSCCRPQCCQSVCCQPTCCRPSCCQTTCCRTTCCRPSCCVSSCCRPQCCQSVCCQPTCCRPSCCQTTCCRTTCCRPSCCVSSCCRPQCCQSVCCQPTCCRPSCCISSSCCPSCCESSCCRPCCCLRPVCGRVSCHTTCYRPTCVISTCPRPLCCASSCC
# B2: E3 ubiquitin-protein ligase LNX (Homo sapiens), Q8TBB1 (parent)
# chain: B1 chain
# partner: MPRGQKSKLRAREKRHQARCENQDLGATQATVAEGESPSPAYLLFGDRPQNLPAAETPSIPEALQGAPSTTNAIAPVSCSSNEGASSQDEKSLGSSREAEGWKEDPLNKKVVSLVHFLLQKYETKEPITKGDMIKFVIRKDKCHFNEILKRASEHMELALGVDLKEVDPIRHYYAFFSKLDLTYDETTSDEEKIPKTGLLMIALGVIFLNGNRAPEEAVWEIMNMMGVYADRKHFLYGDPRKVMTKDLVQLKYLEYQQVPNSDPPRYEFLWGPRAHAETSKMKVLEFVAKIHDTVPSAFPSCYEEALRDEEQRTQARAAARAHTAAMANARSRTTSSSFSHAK
# B3: E3 ubiquitin-protein ligase LNX (Homo sapiens), Q8TBB1 (parent)
# chain: B1 chain
# partner: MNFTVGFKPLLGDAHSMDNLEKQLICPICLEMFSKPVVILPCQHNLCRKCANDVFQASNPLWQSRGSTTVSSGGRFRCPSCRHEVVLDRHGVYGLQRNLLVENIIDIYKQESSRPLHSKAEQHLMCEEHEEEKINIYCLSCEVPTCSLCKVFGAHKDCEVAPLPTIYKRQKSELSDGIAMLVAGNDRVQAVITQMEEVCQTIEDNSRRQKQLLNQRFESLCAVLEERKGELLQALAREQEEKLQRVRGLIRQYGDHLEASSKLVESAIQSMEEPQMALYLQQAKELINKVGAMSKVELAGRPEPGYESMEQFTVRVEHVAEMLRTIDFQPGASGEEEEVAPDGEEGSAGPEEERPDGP
# B4: E3 ubiquitin-protein ligase LNX (Homo sapiens), Q8TBB1 (parent)
# chain: B1 chain
# partner: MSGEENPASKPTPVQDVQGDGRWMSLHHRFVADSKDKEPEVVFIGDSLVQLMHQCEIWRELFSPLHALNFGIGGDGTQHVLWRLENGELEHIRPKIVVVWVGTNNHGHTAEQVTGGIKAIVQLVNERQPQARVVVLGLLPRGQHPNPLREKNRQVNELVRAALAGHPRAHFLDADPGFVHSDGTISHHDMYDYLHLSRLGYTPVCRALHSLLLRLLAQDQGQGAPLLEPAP
# B5: E3 ubiquitin-protein ligase LNX (Homo sapiens), Q8TBB1 (parent)
# chain: B1 chain
# partner: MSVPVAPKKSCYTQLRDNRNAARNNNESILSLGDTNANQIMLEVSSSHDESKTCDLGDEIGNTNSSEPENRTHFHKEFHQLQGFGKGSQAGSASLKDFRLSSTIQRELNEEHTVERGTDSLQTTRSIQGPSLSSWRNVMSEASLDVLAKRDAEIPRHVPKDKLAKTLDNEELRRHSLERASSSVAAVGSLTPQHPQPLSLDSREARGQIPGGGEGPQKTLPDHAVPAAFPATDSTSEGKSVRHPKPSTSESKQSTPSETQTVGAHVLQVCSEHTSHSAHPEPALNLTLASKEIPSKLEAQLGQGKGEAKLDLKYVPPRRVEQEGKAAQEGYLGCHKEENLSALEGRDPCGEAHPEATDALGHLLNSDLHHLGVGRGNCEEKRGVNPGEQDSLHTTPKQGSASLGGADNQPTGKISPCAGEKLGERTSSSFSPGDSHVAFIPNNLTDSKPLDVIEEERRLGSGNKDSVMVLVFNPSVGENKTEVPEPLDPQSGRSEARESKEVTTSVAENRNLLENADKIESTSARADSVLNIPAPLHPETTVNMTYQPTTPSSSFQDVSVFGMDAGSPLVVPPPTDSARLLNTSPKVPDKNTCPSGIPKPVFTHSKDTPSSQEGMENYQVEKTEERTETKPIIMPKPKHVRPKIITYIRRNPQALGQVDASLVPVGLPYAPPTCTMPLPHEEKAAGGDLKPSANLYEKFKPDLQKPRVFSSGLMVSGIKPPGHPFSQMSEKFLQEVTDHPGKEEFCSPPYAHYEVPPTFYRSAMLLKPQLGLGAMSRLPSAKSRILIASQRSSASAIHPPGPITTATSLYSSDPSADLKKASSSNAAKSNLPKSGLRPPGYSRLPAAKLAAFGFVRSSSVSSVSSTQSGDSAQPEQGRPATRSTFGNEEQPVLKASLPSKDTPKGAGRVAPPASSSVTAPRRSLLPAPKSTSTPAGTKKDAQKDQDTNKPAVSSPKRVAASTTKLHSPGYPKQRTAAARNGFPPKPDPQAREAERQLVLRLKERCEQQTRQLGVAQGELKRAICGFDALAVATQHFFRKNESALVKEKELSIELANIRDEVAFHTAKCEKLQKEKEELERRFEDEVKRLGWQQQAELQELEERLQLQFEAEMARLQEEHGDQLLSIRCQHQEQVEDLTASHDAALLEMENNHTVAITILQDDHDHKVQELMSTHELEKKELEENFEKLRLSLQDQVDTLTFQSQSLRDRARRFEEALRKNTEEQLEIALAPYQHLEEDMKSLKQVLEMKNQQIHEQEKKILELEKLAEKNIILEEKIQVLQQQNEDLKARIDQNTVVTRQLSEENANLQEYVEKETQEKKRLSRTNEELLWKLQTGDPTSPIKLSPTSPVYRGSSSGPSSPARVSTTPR
# B6: E3 ubiquitin-protein ligase LNX (Homo sapiens), Q8TBB1 (parent)
# chain: B1 chain
# partner: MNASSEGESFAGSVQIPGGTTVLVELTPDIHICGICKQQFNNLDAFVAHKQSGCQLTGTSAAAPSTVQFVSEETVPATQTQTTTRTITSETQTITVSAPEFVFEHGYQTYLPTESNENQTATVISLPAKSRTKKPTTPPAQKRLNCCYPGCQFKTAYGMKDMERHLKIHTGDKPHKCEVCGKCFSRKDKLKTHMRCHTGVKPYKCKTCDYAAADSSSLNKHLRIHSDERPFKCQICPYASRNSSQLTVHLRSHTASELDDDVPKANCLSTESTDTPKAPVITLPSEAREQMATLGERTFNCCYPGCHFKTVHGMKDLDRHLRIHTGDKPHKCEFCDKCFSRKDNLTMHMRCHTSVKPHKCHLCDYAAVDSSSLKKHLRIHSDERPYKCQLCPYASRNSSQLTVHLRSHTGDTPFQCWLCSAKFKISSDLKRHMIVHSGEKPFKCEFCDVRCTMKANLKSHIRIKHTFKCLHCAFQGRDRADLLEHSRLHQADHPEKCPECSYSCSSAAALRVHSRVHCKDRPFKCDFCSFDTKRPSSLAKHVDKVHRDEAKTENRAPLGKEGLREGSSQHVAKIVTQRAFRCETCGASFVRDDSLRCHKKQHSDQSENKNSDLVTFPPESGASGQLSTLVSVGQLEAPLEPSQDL
# B7: E3 ubiquitin-protein ligase LNX (Homo sapiens), Q8TBB1 (parent)
# chain: B1 chain
# partner: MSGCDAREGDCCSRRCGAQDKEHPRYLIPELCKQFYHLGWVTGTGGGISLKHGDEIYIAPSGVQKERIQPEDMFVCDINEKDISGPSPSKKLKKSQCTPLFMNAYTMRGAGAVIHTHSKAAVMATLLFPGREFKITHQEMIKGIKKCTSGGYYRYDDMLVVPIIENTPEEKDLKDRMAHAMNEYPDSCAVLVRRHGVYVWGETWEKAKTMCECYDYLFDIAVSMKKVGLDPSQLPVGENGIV
# B8: E3 ubiquitin-protein ligase LNX (Homo sapiens), Q8TBB1 (parent)
# chain: B1 chain
# partner: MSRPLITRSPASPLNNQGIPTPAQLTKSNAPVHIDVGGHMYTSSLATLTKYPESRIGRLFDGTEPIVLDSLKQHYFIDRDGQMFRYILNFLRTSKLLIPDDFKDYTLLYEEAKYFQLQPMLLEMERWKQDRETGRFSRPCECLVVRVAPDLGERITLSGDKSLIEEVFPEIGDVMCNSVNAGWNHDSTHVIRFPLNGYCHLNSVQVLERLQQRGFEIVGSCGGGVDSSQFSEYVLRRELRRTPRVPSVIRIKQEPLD
# B9: E3 ubiquitin-protein ligase LNX (Homo sapiens), Q8TBB1 (parent)
# chain: B1 chain
# partner: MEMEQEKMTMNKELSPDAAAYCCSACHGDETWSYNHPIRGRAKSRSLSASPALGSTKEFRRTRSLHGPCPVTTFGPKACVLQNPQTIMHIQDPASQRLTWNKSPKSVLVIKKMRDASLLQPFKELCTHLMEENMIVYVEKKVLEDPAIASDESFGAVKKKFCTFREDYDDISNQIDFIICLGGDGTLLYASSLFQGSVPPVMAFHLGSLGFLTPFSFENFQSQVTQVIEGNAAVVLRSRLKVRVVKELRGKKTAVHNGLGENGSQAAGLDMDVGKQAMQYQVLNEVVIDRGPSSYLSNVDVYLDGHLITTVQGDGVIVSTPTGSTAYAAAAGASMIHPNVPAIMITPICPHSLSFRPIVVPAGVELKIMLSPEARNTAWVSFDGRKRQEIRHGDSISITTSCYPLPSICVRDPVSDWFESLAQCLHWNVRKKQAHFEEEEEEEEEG
# Variants of: B1
# Conditions: with kr412_human KRTAP4-12, Q9BQ66
row,effect of a mutation on the interaction,Variant
1,disrupting interaction strength,E295K

# Variants of: B2
# Conditions: with magbi_human MAGEB18, Q96M61
row,effect of a mutation on the interaction,Variant
1,disrupting interaction strength,E295K

# Variants of: B3
# Conditions: with tri54_human TRIM54, Q9BYV2
row,effect of a mutation on the interaction,Variant
1,disrupting interaction strength,E295K

# Variants of: B4
# Conditions: with pa1b3_human PAFAH1B3, Q15102
row,effect of a mutation on the interaction,Variant
1,disrupting interaction strength,E295K

# Variants of: B5
# Conditions: with mtus2_human MTUS2, Q5JR59
row,effect of a mutation on the interaction,Variant
1,disrupting interaction strength,E295K

# Variants of: B6
# Conditions: with zf64b_human ZFP64, Q9NTW7
row,effect of a mutation on the interaction,Variant
1,disrupting interaction strength,E295K

# Variants of: B7
# Conditions: with mtnb_human APIP
row,effect of a mutation on the interaction,Variant
1,disrupting interaction strength,E295K

# Variants of: B8
# Conditions: with kctd1_human KCTD1, Q719H9
row,effect of a mutation on the interaction,Variant
1,disrupting interaction strength,E295K

# Variants of: B9
# Conditions: with nadk_human NADK
row,effect of a mutation on the interaction,Variant
1,disrupting interaction strength,E295K

# From IntAct's records for PubMed 29892012
